Consider 72 sequences from the supplement of paper PMC10567573.

This data set in a line: protein stability index of a GFP-peptide fusion (GPS, HEK-293T) (PSI 1-6); higher = more stable.
Where [1] appears, read: treatment: DMSO, c terminus: a fixed tail appended.
[2] abbreviates: treatment: MLN4924 1 uM, 8 h, c terminus: a fixed tail appended.

± gives the standard deviation.
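Note: 24-mer peptide tiles fused after GFP, lentivirally expressed, FACS-sorted into six equal bins by GFP/DsRed ratio, decoded by Illumina sequencing, PSI is the read-weighted mean bin number.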

For EALGHMFMYFLRGSLPWQGLKADT [CSNK1G1], the protein stability index runs as follows: under setting [1], 3.63 ± 0.22; under setting [2], 3.19 ± 0.4. For DIVFSKIKGKSCRTITFEQFQEAL [TPPP] the same measures were 2.46 ± 0.29 and 2.31 ± 0.13. For GGTSVGSLGVPGSVGGVPGGTGSG [ZBTB22] the same measures were 4.41 ± 0.29 and 4.76 ± 0.088. For ARGTPSPKRMPSGRGGRDRFTAES [FSD1] the same measures were 4.43 ± 0.3 and 4.69 ± 0.069. For the sequence MNELQHDLDVVSDALAKVSRKPSI [TPH1], the protein stability index is 4.27 ± 0.22 under setting [1] and 4.42 ± 0.32 under setting [2]. For ESQKANQCAVLIYTSGTTGIPKGV [ACSBG2] the same measures were 2.13 ± 0.26 and 2.52 ± 0.41.

Take SNVQEVRCPVTVCGDVHGQFHDLM [PPP2CA]: the protein stability index reads like this: under setting [1], 3.54 ± 0.41; under setting [2], 3.49 ± 0.31. Turning to RLNFQTPGMASHPPIPILELADHI [PTPRD], the protein stability index runs as follows: under setting [1], 3.23 ± 0.2; under setting [2], 3.08 ± 0.087. For DHEDFTGSSSLGFTSSPSPFSSSS [FCHO1] the same measures were 4.45 ± 0.15 and 4.37 ± 0.14. Consider DADILGLKKSNSAPSKKAAKDPGK [FBF1], for which the protein stability index was found to be 5.18 ± 0.18 under setting [1] and 5.22 ± 0.42 under setting [2]. The matching figures for QQQQLTFTAALEHCRENAHDKIRP [SPACA9]: 4.1 ± 0.22 and 4.03 ± 0.16. Turning to REERLRRENEELSARYLSQCQEAE [FBF1], the protein stability index by setting is: under setting [1], 5.26 ± 0.29; under setting [2], 4.97 ± 0.54.

Sequence NPELIKPKKLLNPVKASRSHQELH [FAM107A] registered a protein stability index under setting [1] of 4.21 ± 0.16 and a protein stability index under setting [2] of 4.24 ± 0.26. The matching figures for KELVEFAQDDDRLREERKKAKKNK [CLINT1]: 5.49 ± 0.096 and 5.53 ± 0.17. For FQTLMFLVRDWSFPYEYSYGLQGG [ATL3] the same measures were 3.88 ± 1 and 3.15 ± 0.28. The matching figures for FPLLPDHATALVEAFRLKQQLHAR [PPEF2]: 2.74 ± 0.11 and 2.79 ± 0.09. The sequence EETHLEETTESQQNGEEGTSTPED [SMARCE1] gave a protein stability index under setting [1] of 5.48 ± 0.29 and a protein stability index under setting [2] of 5.63 ± 0.23. For RGTHAVVGVATARAPLHSVGYTAL [SPSB4] the same measures were 2.68 ± 0.27 and 2.63 ± 0.41. For ADSLQASMEKDATLNVDRKEKCVS [DLC1] the same measures were 5.35 ± 0.35 and 5.3 ± 0.25. For PAPALCCAPYDSRLLGSARPELGA [IRX6] the same measures were 3.08 ± 0.19 and 3.1 ± 0.25.

Take NSLEGGTDATAFWWGEWTKWTACS [ADAMTSL2]: the protein stability index under setting [2] is 3.25 ± 0.35. RSTNLLAAETASLEEQLQGWGEVM [ARL6IP1] came in with a protein stability index under setting [1] of 3.85 ± 0.32 and a protein stability index under setting [2] of 4.15 ± 0.23. For IPKLTPGDNPYMYPEQSKGFHKAG [SPATS1] the same measures were 3.97 ± 0.28 and 3.84 ± 0.25. For the sequence MEKFREDEGFIKEEERPLPEKEYQ [KCNA1], the protein stability index came to 5.38 ± 0.32 under setting [1] and 5.53 ± 0.31 under setting [2].

CRLRCHPPRGPLAKHRLVPPAQGR [TRIM9] came in with a protein stability index under setting [1] of 2.84 ± 0.14 and a protein stability index under setting [2] of 3.47 ± 0.56.

As to AILEMKWKVRAEKEACQREKELPA [ZBED2], the protein stability index runs as follows: under setting [1], 3.47 ± 0.29; under setting [2], 3.56 ± 0.55. The matching figures for IQFWNSRQSLEGLSVRSVFFGVFQ [CLPTM1]: 2.65 ± 0.46 and 2.79 ± 0.91. The matching figures for GLKPNSLYYFRLAARSPQGLGAST [PTPRD]: 1.89 ± 0.099 and 2.85 ± 1. For TEKLKANAESSKTWLKGKFTELRL [TRIM14] the same measures were 2.53 ± 0.43 and 2.48 ± 0.42. As to DWVSDWSSRPENIPPKEFHFRHPK [BNIP3L], the protein stability index is 3.79 ± 0.27 under setting [1] and 3.68 ± 0.093 under setting [2]. Turning to STRQTQSWTAVTPQQTWASPAEVV [C18orf25], the protein stability index runs as follows: under setting [1], 3.63 ± 0.078; under setting [2], 3.98 ± 0.24. The matching figures for LLSIIATVMILPVTHTEISPEQQF [TMEM175]: 3.47 ± 0.95 and 3.02 ± 0.35. For LKDHFSHLLGIPHSVLQIRYSGKI [IQUB] the same measures were 2.19 ± 0.38 and 2.06 ± 0.39.

With VRLQSQRPSMASELMPSSRLWSLS [SLC25A39], the protein stability index amounted to 2.64 ± 0.32 under setting [1] and 2.58 ± 0.17 under setting [2]. As for AISLSTGRESYIPGICVARVYHGW [SLA], the protein stability index is, setting by setting: under setting [1], 2.92 ± 0.85; under setting [2], 2.48 ± 0.92. For MNTNSKEVLSLGVQVPEAWEELLT [ZSCAN9] the same measures were 3.08 ± 0.47 and 3.52 ± 0.34. KRRRSVTPPEEQQEAEEPKARVLR [CDC25B]: the protein stability index is, setting by setting: under setting [1], 5.32 ± 0.24; under setting [2], 5.67 ± 0.21. For IAHDFPGIGHKVDAVFMKDGFFYF [MMP1] the same measures were 2.41 ± 0.69 and 2.27 ± 0.16. For WRWTGFNFGFDLLVTYTNRYIIFK [GMCL1] the same measures were 2.63 ± 0.58 and 3.02 ± 0.45. EEADFLSAETGSPRLTMHYPCLEK [IRX6]: the protein stability index reads like this: under setting [1], 4.49 ± 0.19; under setting [2], 4.56 ± 0.065. The matching figures for SRREIRKIMGVEEEDDDDDDDDNL [ANKRD40]: 5.44 ± 0.12 and 5.53 ± 0.16. On to KKKGMYRKAITEAANAARHVAPEI [PWWP2B], for which the protein stability index is, setting by setting: under setting [1], 4.33 ± 0.045; under setting [2], 4.5 ± 0.28. The matching figures for QNYISQKEDASEFQILKYLFQIDV [MIA2]: 2.28 ± 0.21 and 2.25 ± 0.45. Sequence VTAGCGFGKDFRKGLLKKGACYGD [PPTC7] returned a protein stability index under setting [1] of 2.79 ± 0.56 and a protein stability index under setting [2] of 2.65 ± 0.11. For EKRAKRLSSAPSSRAEPIRTTVFQ [ZMAT5] the same measures were 3.74 ± 0.54 and 3.86 ± 0.061. For PRNPTVRWGYVAMKFAQVFGCFFY [SOAT1] the same measures were 2.33 ± 0.2 and 2.18 ± 0.2. Sequence KPSGALGSESYKSSAGSAEQTAPG [EHMT1] displayed a protein stability index under setting [1] of 5.26 ± 0.39 and a protein stability index under setting [2] of 5.43 ± 0.22. The matching figures for EAEKLERQLALPATEQAATQESTF [NOP53]: 5.43 ± 0.32 and 5.53 ± 0.1. For STWALYGRAVDQDKVLRFAQQIRL [MYORG] the same measures were 2.29 ± 0.23 and 2.25 ± 0.33. The matching figures for LPLRVSFCPLSLWRWQLYAAQSTK [CLPTM1]: 2.31 ± 0.29 and 2.24 ± 0.7.

Consider FFASGFKRAFKIKDFANTIPGHGG [CDS2], for which the protein stability index came to 1.95 ± 0.11 under setting [1] and 2.33 ± 0.2 under setting [2]. Take AVDCKWYIRAPPRSKIYLRFLDYE [NETO1]: the protein stability index turned out to be 2.43 ± 0.24 under setting [1] and 2.19 ± 0.38 under setting [2]. For QQELRELRRELELLGRERDRVQVE [PRPH] the same measures were 4.06 ± 0.52 and 4.39 ± 0.29. Take TTVVVFVASMVLGECRQMSSSSQI [CLCN6]: the protein stability index runs as follows: under setting [1], 3 ± 0.49; under setting [2], 3.22 ± 0.24. The matching figures for KAQLLARVNKEHEHKLKVVRDQIS [TRIM9]: 3.34 ± 0.27 and 3.42 ± 0.075. For ERFLELAPDFVGDILWEHLEQMIK [ETS2], the protein stability index by setting is: under setting [1], 2.36 ± 0.58; under setting [2], 2.89 ± 0.51. The matching figures for SSFSDPFFVVETLCIIWFSFELLV [KCNA3]: 3.06 ± 0.48 and 3.2 ± 0.32. The matching figures for SRAEPIRTTVFQYPVGWPPVQELP [ZMAT5]: 2.38 ± 0.41 and 2.82 ± 0.34.

Turning to RFPESHLPIQTPGAFLRTCLLSSN [TLE6], the protein stability index is, setting by setting: under setting [1], 2.71 ± 0.14; under setting [2], 2.6 ± 0.26.

Turning to QQWFPSLELGHWLYQTELVENECY [TOR1AIP2], the protein stability index is, setting by setting: under setting [1], 2.55 ± 0.54; under setting [2], 2.34 ± 0.47. The matching figures for PHFQPDASLLQPVTPLGTSRWRKI [NCF4]: 3.58 ± 0.3 and 3.73 ± 0.17. The matching figures for ADRAQKMDGESEEEQESVDTGEEE [EHMT1]: 5.78 ± 0.16 and 5.73 ± 0.32. The matching figures for ILGPAYFVTYVFFVFFVLLNMFLA [PKD2L1]: 2.88 ± 0.45 and 3.22 ± 0.3. Take AAKTLPGGAGKGRTPSAFPQTPAA [EHMT1]: the protein stability index by setting is: under setting [1], 4.26 ± 0.33; under setting [2], 4.39 ± 0.085. The matching figures for AHIRAERDILVEADGAWVVKMFYS [STK38L]: 2.24 ± 0.3 and 2.27 ± 0.2. For MATYLRYVRRLDFFEKPDYDYLRK [CSNK1G3] the same measures were 2.31 ± 0.42 and 2.32 ± 0.12. The matching figures for LRALREKLFAHSSDLLSEFKKHDA [PPEF2]: 2.1 ± 0.33 and 2.29 ± 0.42.

Consider FVCQCFEGYILREDGKTCRRKDVC [MATN2], for which the protein stability index reads like this: under setting [1], 1.99 ± 0.39; under setting [2], 3.09 ± 0.092. Regarding WYSRLQACQWGGNFLAFSVRRVS, the protein stability index worked out at 3.17 ± 0.58 (treatment: DMSO, c terminus: native) and 2.15 ± 0.83 (treatment: MLN4924 1 uM, 8 h, c terminus: native).

For LVSVYPDKYCPLLIKEGGMPLLRD [ZER1], the protein stability index is, setting by setting: under setting [1], 2.38 ± 0.23; under setting [2], 2.42 ± 0.29. The matching figures for ILLSWTPPRSDTIANYELVYKDGE [PTPRD]: 2.03 ± 0.41 and 2.23 ± 0.42. The matching figures for LTRAGMSYYNSPGLHVQHMGTSHG [CCDC6]: 2.67 ± 0.2 and 2.81 ± 0.12.
